Target: T1, SETD3 (SET domain protein 3) (human, UniProt Q86TU7)
T1 sequence: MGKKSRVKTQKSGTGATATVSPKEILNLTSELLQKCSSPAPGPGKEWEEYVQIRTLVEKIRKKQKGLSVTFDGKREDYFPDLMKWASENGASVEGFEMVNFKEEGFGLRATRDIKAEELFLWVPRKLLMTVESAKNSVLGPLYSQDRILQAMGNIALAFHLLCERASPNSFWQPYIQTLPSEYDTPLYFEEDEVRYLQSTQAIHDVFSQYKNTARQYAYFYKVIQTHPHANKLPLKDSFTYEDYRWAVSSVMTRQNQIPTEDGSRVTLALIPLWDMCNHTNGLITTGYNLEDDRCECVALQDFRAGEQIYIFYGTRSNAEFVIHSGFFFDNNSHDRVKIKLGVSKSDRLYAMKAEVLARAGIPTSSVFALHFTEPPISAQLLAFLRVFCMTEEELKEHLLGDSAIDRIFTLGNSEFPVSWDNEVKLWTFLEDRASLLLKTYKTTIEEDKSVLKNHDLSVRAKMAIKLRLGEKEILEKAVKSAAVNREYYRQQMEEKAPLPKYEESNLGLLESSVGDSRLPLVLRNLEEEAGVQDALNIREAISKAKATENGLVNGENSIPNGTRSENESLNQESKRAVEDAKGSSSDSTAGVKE
Assay: crystal structure

Binder: TLKYPIEHGIVTNWD [Human beta-actin peptide (residues 66-80)]
- binding result: binds

— paper PMC6511263 (Nature, 2018)
